According to paper PMC11557686:

Tests used:
Experiment in all cases: NanoBiT
Details in all cases: six technical replicates in each of three independent biological replicates; parent: est. 1.0; read off a plot
SmBiT-SEC24A = SmBiT-SEC24A (UniProt O95486)
SmBiT-SEC24C = SmBiT-SEC24C (UniProt P53992)
LgBiT-SURF4 = LgBiT-SURF4 (UniProt O15260)

Sequence of UniProt P53992 (P53992 whole entry): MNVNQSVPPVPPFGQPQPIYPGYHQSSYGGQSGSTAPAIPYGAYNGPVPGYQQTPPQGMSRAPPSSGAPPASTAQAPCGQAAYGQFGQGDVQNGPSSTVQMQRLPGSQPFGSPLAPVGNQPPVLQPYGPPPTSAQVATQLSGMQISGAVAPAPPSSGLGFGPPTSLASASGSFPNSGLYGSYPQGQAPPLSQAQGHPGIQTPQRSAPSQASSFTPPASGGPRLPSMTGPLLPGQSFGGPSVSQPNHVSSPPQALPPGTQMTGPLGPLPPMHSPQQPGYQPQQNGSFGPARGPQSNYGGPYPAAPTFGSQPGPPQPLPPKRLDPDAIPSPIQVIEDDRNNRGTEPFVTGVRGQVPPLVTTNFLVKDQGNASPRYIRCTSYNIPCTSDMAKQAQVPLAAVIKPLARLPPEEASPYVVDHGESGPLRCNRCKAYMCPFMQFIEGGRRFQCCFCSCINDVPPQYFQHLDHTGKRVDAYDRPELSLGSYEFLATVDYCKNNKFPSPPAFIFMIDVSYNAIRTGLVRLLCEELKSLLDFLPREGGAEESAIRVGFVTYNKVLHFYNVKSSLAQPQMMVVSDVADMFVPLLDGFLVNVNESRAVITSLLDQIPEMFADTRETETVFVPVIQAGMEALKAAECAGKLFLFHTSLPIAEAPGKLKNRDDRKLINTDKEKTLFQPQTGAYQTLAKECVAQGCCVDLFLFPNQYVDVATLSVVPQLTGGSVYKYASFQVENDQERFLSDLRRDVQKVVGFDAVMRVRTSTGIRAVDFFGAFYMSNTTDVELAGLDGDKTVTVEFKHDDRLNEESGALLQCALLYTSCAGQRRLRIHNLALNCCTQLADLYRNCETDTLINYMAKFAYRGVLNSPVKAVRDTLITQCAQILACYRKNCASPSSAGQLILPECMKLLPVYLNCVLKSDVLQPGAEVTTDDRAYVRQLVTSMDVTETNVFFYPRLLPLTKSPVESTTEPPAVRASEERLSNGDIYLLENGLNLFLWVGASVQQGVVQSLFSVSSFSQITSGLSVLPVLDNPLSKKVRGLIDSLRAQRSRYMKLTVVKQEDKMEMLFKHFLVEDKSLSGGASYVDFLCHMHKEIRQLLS
Sequence of LgBiT-SURF4 (O15260 whole entry, change not shown): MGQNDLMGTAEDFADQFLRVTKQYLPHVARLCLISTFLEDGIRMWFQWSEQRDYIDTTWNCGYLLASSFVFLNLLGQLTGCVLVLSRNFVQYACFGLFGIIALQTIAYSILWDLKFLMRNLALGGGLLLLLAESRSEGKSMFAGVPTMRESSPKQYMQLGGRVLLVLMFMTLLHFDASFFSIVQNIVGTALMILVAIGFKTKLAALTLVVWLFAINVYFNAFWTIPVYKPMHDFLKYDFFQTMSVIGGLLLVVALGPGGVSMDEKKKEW
Sequence of SmBiT-SEC24A (O95486 whole entry, change not shown): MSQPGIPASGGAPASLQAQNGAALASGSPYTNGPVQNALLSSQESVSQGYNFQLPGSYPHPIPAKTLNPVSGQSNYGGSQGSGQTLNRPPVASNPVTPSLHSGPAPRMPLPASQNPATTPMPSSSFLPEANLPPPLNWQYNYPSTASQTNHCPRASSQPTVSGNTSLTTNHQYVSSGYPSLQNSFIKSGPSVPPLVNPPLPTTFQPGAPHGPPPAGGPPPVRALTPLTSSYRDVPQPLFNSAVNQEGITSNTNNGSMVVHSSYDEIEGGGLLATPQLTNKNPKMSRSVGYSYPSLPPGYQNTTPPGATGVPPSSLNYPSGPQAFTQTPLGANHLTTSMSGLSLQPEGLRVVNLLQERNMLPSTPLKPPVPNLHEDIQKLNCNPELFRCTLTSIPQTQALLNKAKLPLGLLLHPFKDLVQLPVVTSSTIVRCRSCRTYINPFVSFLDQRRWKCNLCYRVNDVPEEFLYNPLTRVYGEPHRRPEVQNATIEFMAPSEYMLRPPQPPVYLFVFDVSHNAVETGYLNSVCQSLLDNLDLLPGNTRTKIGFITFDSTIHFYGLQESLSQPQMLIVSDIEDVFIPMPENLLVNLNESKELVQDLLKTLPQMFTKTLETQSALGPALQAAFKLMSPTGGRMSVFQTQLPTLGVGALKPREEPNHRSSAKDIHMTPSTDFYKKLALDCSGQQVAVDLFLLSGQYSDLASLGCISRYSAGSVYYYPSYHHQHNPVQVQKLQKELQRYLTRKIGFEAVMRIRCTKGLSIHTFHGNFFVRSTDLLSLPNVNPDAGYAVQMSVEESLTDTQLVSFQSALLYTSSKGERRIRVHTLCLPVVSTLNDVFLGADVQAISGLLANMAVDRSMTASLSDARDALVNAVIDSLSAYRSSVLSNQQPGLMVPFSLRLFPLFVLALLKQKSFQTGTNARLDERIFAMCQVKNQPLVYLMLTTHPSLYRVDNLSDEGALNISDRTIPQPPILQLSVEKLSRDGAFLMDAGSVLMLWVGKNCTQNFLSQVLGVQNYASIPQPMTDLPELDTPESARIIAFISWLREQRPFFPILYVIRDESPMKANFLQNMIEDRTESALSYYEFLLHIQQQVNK

ratio to parent (SmBiT-SEC24A)	ratio to parent (SmBiT-SEC24C)	ratio to parent (LgBiT-SURF4)	Substance
0.9	0.69	–	LgBiT-SURF4 (from UniProt O15260) DE
0.85	0.78	–	LgBiT-SURF4 (from UniProt O15260) EW
0.43	0.82	–	LgBiT-SURF4 (from UniProt O15260) Phe loop
–	–	0.79	SmBiT-SEC24A (from UniProt O95486) D-site
